Source: IntAct's records for PubMed 22624718

B1: Leukocyte antigen CD37 (Homo sapiens), P11049 (parent)
chain: MSAQESCLSLIKYFLFVFNLFFFVLGSLIFCFGIWILIDKTSFVSFVGLAFVPLQIWSKVLAISGIFTMGIALLGCVGALKELRCLLGLYFGMLLLLFATQITLGILISTQRAQLERSLRDVVEKTIQKYGTNPEETAAEESWDYVQFQLRCCGWHYPQDWFQVLILRGNGSEAHRVPCSCYNLSATNDSTILDKVILPQLSRLGHLARSRHSADICAVPAESHIYREGCAQGLQKWLHNNLISIVGICLGVGLLELGFMTLSIFLCRNLDHVYNRLARYR

Variants of: B1
Settings: with lyn_human LYN

effect of a mutation on the interaction | Variant
disrupting interaction | Y13F

Variants of: B1
Settings: with ptn6_human PTPN6, P29350
ptn6_human PTPN6, P29350, sequence (P29350 whole entry): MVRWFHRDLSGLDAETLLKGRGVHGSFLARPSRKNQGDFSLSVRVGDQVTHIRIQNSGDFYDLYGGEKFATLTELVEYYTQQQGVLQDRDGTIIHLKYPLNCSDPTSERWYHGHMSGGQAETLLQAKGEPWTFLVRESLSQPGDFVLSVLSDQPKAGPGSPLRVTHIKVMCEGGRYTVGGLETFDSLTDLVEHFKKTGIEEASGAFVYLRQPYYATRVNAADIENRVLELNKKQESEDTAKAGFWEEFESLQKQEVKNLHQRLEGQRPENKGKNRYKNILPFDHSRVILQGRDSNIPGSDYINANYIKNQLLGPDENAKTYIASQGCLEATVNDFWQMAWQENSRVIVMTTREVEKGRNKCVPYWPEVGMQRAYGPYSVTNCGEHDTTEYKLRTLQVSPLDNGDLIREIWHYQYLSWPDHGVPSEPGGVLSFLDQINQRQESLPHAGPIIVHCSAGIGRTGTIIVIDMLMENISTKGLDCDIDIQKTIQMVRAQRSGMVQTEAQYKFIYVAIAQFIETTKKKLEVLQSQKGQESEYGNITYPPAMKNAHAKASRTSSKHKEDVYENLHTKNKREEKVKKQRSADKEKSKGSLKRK

effect of a mutation on the interaction | Variant
disrupting interaction | Y13F
